Data taken from patent US20140087995A1 (published 2014).
Numbered stars: 1 amine (or outer) side, 2 acyl side, 3 side chain; on linkers, the order of the positions; unused ones are H or OH. Bridge positions count the residues as written; N and C are the ends. Side chains are listed from the residue outwards. Ends that are not written are not given here. * marks the point of attachment. C20 diacid = O=C(O)CCCCCCCCCCCCCCCCCCC(=O)*; γGlu = O=C(O)[C@H](CCC(=O)[*:2])N[*:1]; AEEA = NCCOCCOCC(=O)O

T1: human calcitonin receptor (human, UniProt P30988 25-474)
T1 sequence (looked up): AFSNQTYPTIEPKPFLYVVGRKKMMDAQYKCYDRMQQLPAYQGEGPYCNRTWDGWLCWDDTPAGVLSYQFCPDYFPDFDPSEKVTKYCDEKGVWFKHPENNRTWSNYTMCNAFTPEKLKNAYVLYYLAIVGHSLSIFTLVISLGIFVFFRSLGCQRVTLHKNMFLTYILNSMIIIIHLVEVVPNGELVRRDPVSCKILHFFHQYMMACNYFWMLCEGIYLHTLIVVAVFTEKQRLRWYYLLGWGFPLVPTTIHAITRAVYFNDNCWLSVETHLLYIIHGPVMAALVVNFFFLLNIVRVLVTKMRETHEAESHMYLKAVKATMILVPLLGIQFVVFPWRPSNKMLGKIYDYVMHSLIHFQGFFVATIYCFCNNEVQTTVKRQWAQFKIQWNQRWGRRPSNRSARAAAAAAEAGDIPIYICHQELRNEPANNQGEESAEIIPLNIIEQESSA

T2: human amylin receptor (amylin 3(a) receptor: human calcitonin receptor co-expressed with RAMP-3) (human, UniProt P30988 25-474; O60896 24-148, limits assumed)
T2 sequence (looked up) 1: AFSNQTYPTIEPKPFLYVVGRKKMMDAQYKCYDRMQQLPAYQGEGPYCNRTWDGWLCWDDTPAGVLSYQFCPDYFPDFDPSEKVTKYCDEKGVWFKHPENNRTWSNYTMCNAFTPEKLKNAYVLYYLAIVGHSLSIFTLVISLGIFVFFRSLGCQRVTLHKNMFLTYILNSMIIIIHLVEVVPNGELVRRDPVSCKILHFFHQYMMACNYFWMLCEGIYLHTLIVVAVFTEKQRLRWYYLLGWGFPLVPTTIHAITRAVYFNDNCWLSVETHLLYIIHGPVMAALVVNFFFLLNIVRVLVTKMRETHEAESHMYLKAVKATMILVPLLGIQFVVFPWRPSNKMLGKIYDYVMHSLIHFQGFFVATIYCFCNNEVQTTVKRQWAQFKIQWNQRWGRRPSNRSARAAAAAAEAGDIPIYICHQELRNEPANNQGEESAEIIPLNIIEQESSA
T2 sequence (looked up) 2: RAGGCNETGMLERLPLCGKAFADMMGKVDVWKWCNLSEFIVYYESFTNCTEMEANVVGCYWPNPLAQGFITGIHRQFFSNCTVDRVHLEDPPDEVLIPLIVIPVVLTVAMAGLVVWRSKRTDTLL


Legend:
[1] = molecular target: T1, human calcitonin receptor; assay: cell-based or functional assay
[2] = molecular target: T2, human amylin receptor (amylin 3(a) …); assay: cell-based or functional assay

| Binder | Ratio hCT/hAmylin funct. (hCTR EC50 against hAmylin-R EC50) [1] | hCTR funct. EC50 [1] | hAmylin-R funct. EC50 [2] |
| --- | --- | --- | --- |
| K([AEEA-γGlu-C20 diacid])CNTATCATQRLANFLRHSSPNFGAIPSPTPVGSNTY-NH2 (disulfide 2-7; N-terminus assumed; SMILES CC[C@H](C)[C@H](NC(=O)[C@H](C)NC(=O)CNC(=O)[C@H](Cc1ccccc1)NC(=O)[C@H](CC(N)=O)NC(=O)[C@@H]1CCCN1C(=O)[C@H](CO)NC(=O)[C@H](CO)NC(=O)[C@H](Cc1c[nH]cn1)NC(=O)[C@H](CCCNC(=N)N)NC(=O)[C@H](CC(C)C)NC(=O)[C@H](Cc1ccccc1)NC(=O)[C@H](CC(N)=O)NC(=O)[C@H](C)NC(=O)[C@H](CC(C)C)NC(=O)[C@H](CCCNC(=N)N)NC(=O)[C@H](CCC(N)=O)NC(=O)[C@@H](NC(=O)[C@H](C)NC(=O)[C@@H]1CSSC[C@H](NC(=O)[C@@H](N)CCCCNC(=O)COCCOCCNC(=O)CC[C@H](NC(=O)CCCCCCCCCCCCCCCCCCC(=O)O)C(=O)O)C(=O)N[C@@H](CC(N)=O)C(=O)N[C@@H]([C@@H](C)O)C(=O)N[C@@H](C)C(=O)N[C@@H]([C@@H](C)O)C(=O)N1)[C@@H](C)O)C(=O)N1CCC[C@H]1C(=O)N[C@@H](CO)C(=O)N1CCC[C@H]1C(=O)N[C@H](C(=O)N1CCC[C@H]1C(=O)N[C@H](C(=O)NCC(=O)N[C@@H](CO)C(=O)N[C@@H](CC(N)=O)C(=O)N[C@H](C(=O)N[C@@H](Cc1ccc(O)cc1)C(N)=O)[C@@H](C)O)C(C)C)[C@@H](C)O, also called compound 54) | 9.6 | 0.987 nM | 0.103 nM |
| K([AEEA-γGlu-C20 diacid])CNTATCATQRLANFLRHSSPNFGAIPSSTNVGPNTY-NH2 (disulfide 2-7; N-terminus assumed; SMILES CC[C@H](C)[C@H](NC(=O)[C@H](C)NC(=O)CNC(=O)[C@H](Cc1ccccc1)NC(=O)[C@H](CC(N)=O)NC(=O)[C@@H]1CCCN1C(=O)[C@H](CO)NC(=O)[C@H](CO)NC(=O)[C@H](Cc1c[nH]cn1)NC(=O)[C@H](CCCNC(=N)N)NC(=O)[C@H](CC(C)C)NC(=O)[C@H](Cc1ccccc1)NC(=O)[C@H](CC(N)=O)NC(=O)[C@H](C)NC(=O)[C@H](CC(C)C)NC(=O)[C@H](CCCNC(=N)N)NC(=O)[C@H](CCC(N)=O)NC(=O)[C@@H](NC(=O)[C@H](C)NC(=O)[C@@H]1CSSC[C@H](NC(=O)[C@@H](N)CCCCNC(=O)COCCOCCNC(=O)CC[C@H](NC(=O)CCCCCCCCCCCCCCCCCCC(=O)O)C(=O)O)C(=O)N[C@@H](CC(N)=O)C(=O)N[C@@H]([C@@H](C)O)C(=O)N[C@@H](C)C(=O)N[C@@H]([C@@H](C)O)C(=O)N1)[C@@H](C)O)C(=O)N1CCC[C@H]1C(=O)N[C@@H](CO)C(=O)N[C@@H](CO)C(=O)N[C@H](C(=O)N[C@@H](CC(N)=O)C(=O)N[C@H](C(=O)NCC(=O)N1CCC[C@H]1C(=O)N[C@@H](CC(N)=O)C(=O)N[C@H](C(=O)N[C@@H](Cc1ccc(O)cc1)C(N)=O)[C@@H](C)O)C(C)C)[C@@H](C)O, also called compound 50) | 17.4 | 0.662 nM | 0.038 nM |
| K([AEEA-γGlu-C20 diacid])CNTATCATQRLANFLRHSSPNFGAIPSSTPVGSNTY-NH2 (disulfide 2-7; N-terminus assumed; SMILES CC[C@H](C)[C@H](NC(=O)[C@H](C)NC(=O)CNC(=O)[C@H](Cc1ccccc1)NC(=O)[C@H](CC(N)=O)NC(=O)[C@@H]1CCCN1C(=O)[C@H](CO)NC(=O)[C@H](CO)NC(=O)[C@H](Cc1c[nH]cn1)NC(=O)[C@H](CCCNC(=N)N)NC(=O)[C@H](CC(C)C)NC(=O)[C@H](Cc1ccccc1)NC(=O)[C@H](CC(N)=O)NC(=O)[C@H](C)NC(=O)[C@H](CC(C)C)NC(=O)[C@H](CCCNC(=N)N)NC(=O)[C@H](CCC(N)=O)NC(=O)[C@@H](NC(=O)[C@H](C)NC(=O)[C@@H]1CSSC[C@H](NC(=O)[C@@H](N)CCCCNC(=O)COCCOCCNC(=O)CC[C@H](NC(=O)CCCCCCCCCCCCCCCCCCC(=O)O)C(=O)O)C(=O)N[C@@H](CC(N)=O)C(=O)N[C@@H]([C@@H](C)O)C(=O)N[C@@H](C)C(=O)N[C@@H]([C@@H](C)O)C(=O)N1)[C@@H](C)O)C(=O)N1CCC[C@H]1C(=O)N[C@@H](CO)C(=O)N[C@@H](CO)C(=O)N[C@H](C(=O)N1CCC[C@H]1C(=O)N[C@H](C(=O)NCC(=O)N[C@@H](CO)C(=O)N[C@@H](CC(N)=O)C(=O)N[C@H](C(=O)N[C@@H](Cc1ccc(O)cc1)C(N)=O)[C@@H](C)O)C(C)C)[C@@H](C)O, also called compound 49) | 22.5 | 2.39 nM | 0.106 nM |
| K([AEEA-γGlu-C20 diacid])CNTATCATQRLANFLRHSSPNFGAIPSSTPVGSHTY-NH2 (disulfide 2-7; N-terminus assumed; SMILES CC[C@H](C)[C@H](NC(=O)[C@H](C)NC(=O)CNC(=O)[C@H](Cc1ccccc1)NC(=O)[C@H](CC(N)=O)NC(=O)[C@@H]1CCCN1C(=O)[C@H](CO)NC(=O)[C@H](CO)NC(=O)[C@H](Cc1c[nH]cn1)NC(=O)[C@H](CCCNC(=N)N)NC(=O)[C@H](CC(C)C)NC(=O)[C@H](Cc1ccccc1)NC(=O)[C@H](CC(N)=O)NC(=O)[C@H](C)NC(=O)[C@H](CC(C)C)NC(=O)[C@H](CCCNC(=N)N)NC(=O)[C@H](CCC(N)=O)NC(=O)[C@@H](NC(=O)[C@H](C)NC(=O)[C@@H]1CSSC[C@H](NC(=O)[C@@H](N)CCCCNC(=O)COCCOCCNC(=O)CC[C@H](NC(=O)CCCCCCCCCCCCCCCCCCC(=O)O)C(=O)O)C(=O)N[C@@H](CC(N)=O)C(=O)N[C@@H]([C@@H](C)O)C(=O)N[C@@H](C)C(=O)N[C@@H]([C@@H](C)O)C(=O)N1)[C@@H](C)O)C(=O)N1CCC[C@H]1C(=O)N[C@@H](CO)C(=O)N[C@@H](CO)C(=O)N[C@H](C(=O)N1CCC[C@H]1C(=O)N[C@H](C(=O)NCC(=O)N[C@@H](CO)C(=O)N[C@@H](Cc1c[nH]cn1)C(=O)N[C@H](C(=O)N[C@@H](Cc1ccc(O)cc1)C(N)=O)[C@@H](C)O)C(C)C)[C@@H](C)O, also called compound 57) | 35 | 3.12 nM | 0.089 nM |
| K([AEEA-γGlu-C20 diacid])CNTATCATQRLANFLRHSSPNFGAIPSSTNVGPHTY-NH2 (disulfide 2-7; N-terminus assumed; SMILES CC[C@H](C)[C@H](NC(=O)[C@H](C)NC(=O)CNC(=O)[C@H](Cc1ccccc1)NC(=O)[C@H](CC(N)=O)NC(=O)[C@@H]1CCCN1C(=O)[C@H](CO)NC(=O)[C@H](CO)NC(=O)[C@H](Cc1c[nH]cn1)NC(=O)[C@H](CCCNC(=N)N)NC(=O)[C@H](CC(C)C)NC(=O)[C@H](Cc1ccccc1)NC(=O)[C@H](CC(N)=O)NC(=O)[C@H](C)NC(=O)[C@H](CC(C)C)NC(=O)[C@H](CCCNC(=N)N)NC(=O)[C@H](CCC(N)=O)NC(=O)[C@@H](NC(=O)[C@H](C)NC(=O)[C@@H]1CSSC[C@H](NC(=O)[C@@H](N)CCCCNC(=O)COCCOCCNC(=O)CC[C@H](NC(=O)CCCCCCCCCCCCCCCCCCC(=O)O)C(=O)O)C(=O)N[C@@H](CC(N)=O)C(=O)N[C@@H]([C@@H](C)O)C(=O)N[C@@H](C)C(=O)N[C@@H]([C@@H](C)O)C(=O)N1)[C@@H](C)O)C(=O)N1CCC[C@H]1C(=O)N[C@@H](CO)C(=O)N[C@@H](CO)C(=O)N[C@H](C(=O)N[C@@H](CC(N)=O)C(=O)N[C@H](C(=O)NCC(=O)N1CCC[C@H]1C(=O)N[C@@H](Cc1c[nH]cn1)C(=O)N[C@H](C(=O)N[C@@H](Cc1ccc(O)cc1)C(N)=O)[C@@H](C)O)C(C)C)[C@@H](C)O, also called compound 58) | 21.9 | 1.03 nM | 0.047 nM |
| K([AEEA-γGlu-C20 diacid])CNTATCATQRLANFLRHSSPNFGAIPSPTNVGPNTY-NH2 (disulfide 2-7; N-terminus assumed; SMILES CC[C@H](C)[C@H](NC(=O)[C@H](C)NC(=O)CNC(=O)[C@H](Cc1ccccc1)NC(=O)[C@H](CC(N)=O)NC(=O)[C@@H]1CCCN1C(=O)[C@H](CO)NC(=O)[C@H](CO)NC(=O)[C@H](Cc1c[nH]cn1)NC(=O)[C@H](CCCNC(=N)N)NC(=O)[C@H](CC(C)C)NC(=O)[C@H](Cc1ccccc1)NC(=O)[C@H](CC(N)=O)NC(=O)[C@H](C)NC(=O)[C@H](CC(C)C)NC(=O)[C@H](CCCNC(=N)N)NC(=O)[C@H](CCC(N)=O)NC(=O)[C@@H](NC(=O)[C@H](C)NC(=O)[C@@H]1CSSC[C@H](NC(=O)[C@@H](N)CCCCNC(=O)COCCOCCNC(=O)CC[C@H](NC(=O)CCCCCCCCCCCCCCCCCCC(=O)O)C(=O)O)C(=O)N[C@@H](CC(N)=O)C(=O)N[C@@H]([C@@H](C)O)C(=O)N[C@@H](C)C(=O)N[C@@H]([C@@H](C)O)C(=O)N1)[C@@H](C)O)C(=O)N1CCC[C@H]1C(=O)N[C@@H](CO)C(=O)N1CCC[C@H]1C(=O)N[C@H](C(=O)N[C@@H](CC(N)=O)C(=O)N[C@H](C(=O)NCC(=O)N1CCC[C@H]1C(=O)N[C@@H](CC(N)=O)C(=O)N[C@H](C(=O)N[C@@H](Cc1ccc(O)cc1)C(N)=O)[C@@H](C)O)C(C)C)[C@@H](C)O, also called compound 56) | 5 | 0.506 nM | 0.102 nM |
